# Data taken from patent US20240010721A1 (HARBOUR BIOMED SHANGHAI, published 2024).
# Numbering of substitutions follows the chain as printed.
# B1: PR001416 (antibody, human IgG1, kappa, V domains shown)
# VH: QVQLVESGGGVVQPGRSLRLSCAASGFTFSTYGMHWVRQAPGKGLEWVAVIWYDGSDKDYADSVKGRFTISRDTSKNTLYLQMNSLRAEDTAVYYCAREQARSFDLWGRGTLVTVSS
# VL: DIVMTQSPSTLSASVGDRVTITCRASQTINNWLAWYQQKPGKAPKLLIYKASSLESGVPSRFSGSGSGTEFTLTISSLQPDDFATYYCQQYNSYSPMYTFGQGTKVEIKR
# notes: fully human IgG1, kappa
# B2: PR001366 (antibody, V domains shown)
# VH: QVQLVESGGGVVQPGRSLRLSCTASGFTFSSYGMHWVRQAPGKGLEWVAVKWYDGISQNFADSVKGRFTISRDNSKNTLYLQMNSLRAEDTAVYYCARDLARSFDIWGRGTLVTVSS
# VL: B1 VL with V3Q, M4L, T28S, N31S, N92K, E107D
# notes: fully human IgG1, kappa
# B3: PR001359 (antibody, human IgG1, kappa, V domains shown)
# VH: B1 VH with I51T
# VL: B1 VL with T28S, I29V, N92K
# notes: fully human IgG1, kappa
# B4: PR001364 (antibody, human IgG1, kappa, V domains shown)
# VH: B1 VH with Q1E, V5L, T31S, Y32F
# VL: B1 VL
# notes: fully human IgG1, kappa; also called anti-ROR1 1015M3-D8 hIgG1; PR001364(WT)
# B5: PR001369 (antibody, human IgG1, kappa, V domains shown)
# VH: B1 VH with T31N, M34I, V50I, I51M, D57N, K58T, Y80F
# VL: B1 VL
# notes: fully human IgG1, kappa; also called anti-ROR1 1015M3-H10 hIgG1; PR001369(WT)
# B6: PR001355 (antibody, human IgG1, kappa, V domains shown)
# VH: B1 VH with E6Q, V11L, R16G, T31S, D57N, A97V
# VL: B1 VL with V3Q, T10S, I29M, F83S, V106L
# notes: fully human IgG1, kappa
# B7: PR001356 (antibody, human IgG1, kappa, V domains shown)
# VH: B1 VH with T31S, I51A, S56V, D57S, K58E, T74N, S75A
# VL: B1 VL with T28S, N92K
# notes: fully human IgG1, kappa; also called anti-ROR1 1015M2-E6 hIgG1; PR001356(WT)
# B8: PR001417 (antibody, V domains shown)
# VH: B1 VH with T28S, T31S, G33A, K43R, S56G, K58E, A61I, T74D
# VL: B1 VL with I2V, T28S, N31S
# notes: fully human IgG1, kappa
# B9: PR001415 (antibody, human IgG1, kappa, V domains shown)
# VH: B1 VH with Q1E, T31N, Y32S, V50I, I51M, D57N
# VL: B1 VL
# notes: fully human IgG1, kappa
# Biological target: T1, ROR1 (antigen of the KD determination and of the Octet dissociation measurement) (UniProt Q01973 30-403, limits assumed)
# T1 sequence (Q01973 30-403 limits assumed): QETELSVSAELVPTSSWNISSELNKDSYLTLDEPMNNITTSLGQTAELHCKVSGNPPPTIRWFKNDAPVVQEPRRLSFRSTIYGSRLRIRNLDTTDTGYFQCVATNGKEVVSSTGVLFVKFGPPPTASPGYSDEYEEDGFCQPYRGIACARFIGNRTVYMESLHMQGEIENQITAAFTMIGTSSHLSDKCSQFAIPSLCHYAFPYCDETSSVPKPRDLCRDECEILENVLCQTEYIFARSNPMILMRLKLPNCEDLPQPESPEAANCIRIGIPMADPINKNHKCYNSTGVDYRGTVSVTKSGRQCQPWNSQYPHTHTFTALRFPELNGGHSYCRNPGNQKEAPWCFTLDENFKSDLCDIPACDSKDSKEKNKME
# Experiment: method not stated (conventional procedures)
Binder,Kd [nM],koff [s⁻¹],kon [M⁻¹ s⁻¹]
B1,1.27,0.000342,270000
B2,1.67,0.00075,448000
B3,2,0.000637,320000
B4,1.2,0.000376,314000
B5,1.69,0.000519,307000
B6,0.839,0.000291,347000
B7,0.81,0.000287,354000
B8,14.9,0.00646,433000
B9,1.53,0.000512,336000

# Biological target: T2, cynomolgus ROR1 (cynoROR1) on CHO-K1 cells (cynomolgus, UniProt A0A2K5WTX7 30-937)
# T2 construct: whole, on cells; also called CHO-K1-cynoROR1; CHO-K1-cyROR1
# Experiment: flow cytometry (FACS) on CHO-K1-cynoROR1 cells, antibody 0.01-100 nM, median fluorescence intensity
# Experimental: (§1) The binding properties were characterized by FACS. The recombinant antibodies obtained above were serially diluted to 9 different concentrations and incubated for 1 h, and then determined for the binding ability with HEK293T-hROR1, CHO-K1-cynoROR1 and A549 cell lines (endogenously expressing ROR1), respectively. The secondary antibody was then incubated for 1 h. The results are shown in FIG. 4-6 and Table 7-2 below.
row,Binder,EC50 (read off the curve) [nM]
1,B1,~1
2,B8,~2
3,B9,~0.9

# Biological target: T3, human ROR1 (hROR1) on cells (human, UniProt Q01973 30-937)
# T3 construct: whole, on cells; the cell line is named under assay; also called HEK293T-hROR1; 293T-hROR1
# T3 sequence (Q01973 30-937): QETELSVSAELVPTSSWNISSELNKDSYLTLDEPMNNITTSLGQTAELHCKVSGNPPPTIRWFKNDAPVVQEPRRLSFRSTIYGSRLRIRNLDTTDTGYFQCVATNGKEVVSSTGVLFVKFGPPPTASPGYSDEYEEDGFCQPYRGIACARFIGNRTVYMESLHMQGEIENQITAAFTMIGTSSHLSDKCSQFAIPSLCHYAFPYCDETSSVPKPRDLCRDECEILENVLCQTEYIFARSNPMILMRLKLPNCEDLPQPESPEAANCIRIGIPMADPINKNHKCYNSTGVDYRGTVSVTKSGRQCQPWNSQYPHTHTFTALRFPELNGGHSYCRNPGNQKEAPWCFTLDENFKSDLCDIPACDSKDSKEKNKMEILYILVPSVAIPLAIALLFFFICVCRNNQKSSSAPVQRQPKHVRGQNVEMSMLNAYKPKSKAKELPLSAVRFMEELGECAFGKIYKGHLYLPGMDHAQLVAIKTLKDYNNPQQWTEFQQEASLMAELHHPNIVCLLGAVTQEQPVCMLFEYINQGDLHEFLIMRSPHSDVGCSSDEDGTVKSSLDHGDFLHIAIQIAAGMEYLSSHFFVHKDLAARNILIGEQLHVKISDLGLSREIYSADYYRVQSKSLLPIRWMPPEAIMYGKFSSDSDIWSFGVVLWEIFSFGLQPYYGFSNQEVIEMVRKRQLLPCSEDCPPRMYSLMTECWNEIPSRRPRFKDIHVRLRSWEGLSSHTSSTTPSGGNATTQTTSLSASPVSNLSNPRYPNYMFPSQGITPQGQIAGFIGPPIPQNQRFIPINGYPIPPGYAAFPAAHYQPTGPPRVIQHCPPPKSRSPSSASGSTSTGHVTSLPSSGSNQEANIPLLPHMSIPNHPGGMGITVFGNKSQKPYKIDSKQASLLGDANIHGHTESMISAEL
# Experiment: FACS, HEK293T-hROR1 cells; cytometer saturated
# Experimental: as §1
row,Binder,MAX(MFI)
1,B2,262000
2,B3,262000
3,B4,262000
4,B5,262000
5,B6,262000
6,B7,262000

# Biological target: T3, human ROR1 (hROR1) on cells
# Experiment: FACS, A549 cells
# Experimental: as §1
row,Binder,MAX(MFI)
1,B2,4750
2,B3,3930
3,B4,3960
4,B5,3890
5,B6,4240
6,B7,4630

# Biological target: T4, hROR2ECD-his (human, UniProt Q01974 34-403)
# T4 construct: extracellular domain; bought, Acrobiosystems R02-H52E5; also called huROR2-his
# T4 sequence (Q01974 34-403): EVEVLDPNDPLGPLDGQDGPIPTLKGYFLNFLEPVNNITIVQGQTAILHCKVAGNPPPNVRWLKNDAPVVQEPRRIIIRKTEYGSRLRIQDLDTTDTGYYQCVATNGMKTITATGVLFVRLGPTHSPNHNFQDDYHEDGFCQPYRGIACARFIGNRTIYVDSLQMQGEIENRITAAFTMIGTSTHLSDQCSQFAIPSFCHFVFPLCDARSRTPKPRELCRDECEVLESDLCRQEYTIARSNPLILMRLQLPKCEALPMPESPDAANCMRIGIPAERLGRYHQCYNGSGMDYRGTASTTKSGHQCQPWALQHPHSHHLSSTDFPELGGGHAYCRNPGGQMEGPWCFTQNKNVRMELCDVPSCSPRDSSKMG
# Experiment: ELISA, plate coated with hROR2 ECD-his
# Experimental: (§2) Screening by ELISA assay: 96-well plates (Corning 9018) were coated with 1 μg/mL hROR1 ECD-his/hROR2 ECD-his/mROR1 ECD-his proteins prepared with PBS in Example 1a above and incubated at 4° C. overnight. The liquid was then discarded, and the plates were washed 3 times with PBST, blocked with 5% milk for 2 h at room temperature, and washed 3 times with PBST. The taken supernatant was added at 100 μL/well, and the plates were incubated at room temperature for 1 h, followed by washing 3 times with PBST. 100 μL/well of secondary antibody (Sigma, Cat#: A8592) was added, the plates were incubated at room temperature for 1 h, and then washed. TMB was then added to the plates at 100 μL/well and incubated for 15 min at room temperature. Thereafter, the reaction was terminated and data were read.
# (§3) a. Results of ELISA assay (the ELISA assay was performed according to the same procedures as in Example 2c, except that the added samples were recombinant antibodies and the secondary antibody was a-Fc (Genscript, Cat#: A01854))
# The corresponding values in the table are the measured median fluorescence intensity (MFI).
row,Binder,binding result
1,B1,no binding
2,B2,no binding
3,B3,no binding
4,B4,no binding
5,B5,no binding
6,B6,no binding
7,B7,no binding
8,B8,no binding
9,B9,no binding

# Biological target: T3, human ROR1 (hROR1) on cells
# Experiment: cell-based or functional assay
Binder,"ADCC Cytotoxicity (%), Donor 1, 1 nM [%]","ADCC Cytotoxicity (%), Donor 1, 10 nM [%]","ADCC Cytotoxicity (%), Donor 2, 1 nM [%]","ADCC Cytotoxicity (%), Donor 2, 10 nM [%]"
B3,33.7,39.5,21.9,26.1
B6,25.7,29,14.1,14.2

# Biological target: T2, cynomolgus ROR1 (cynoROR1) on CHO-K1 …
# Experiment: FACS, CHO-K1-cynoROR1 cells
# Experimental: as §1
row,Binder,MAX(MFI)
1,B2,23300
2,B3,27200
3,B4,18200
4,B5,22200
5,B6,30000
6,B7,29700

# Biological target: T1, ROR1 (antigen of the KD determination …)
# Experiment: Octet, antigen form not stated
Binder,Response,koff [s⁻¹]
B4,0.601,9.38e-05
B5,0.288,0.00498
B7,0.617,0.000152

# Biological target: T3, human ROR1 (hROR1) on cells
# Experiment: FACS, Panc-1 cells
row,Binder,MFI [MFI]
1,B4,4960
2,B5,6230
3,B7,5590

# Biological target: T3, human ROR1 (hROR1) on cells
# Experiment: flow cytometry (FACS) on A549 cells (endogenous ROR1), antibody 0.01-100 nM, median fluorescence intensity
# Experimental: as §1
row,Binder,EC50 (read off the curve) [nM]
1,B1,~0.4
2,B8,~0.9
3,B9,~0.4

# Biological target: T3, human ROR1 (hROR1) on cells
# Experiment: FACS, HEK293T-hROR1 cells
row,Binder,MFI [MFI]
1,B4,43100
2,B5,43800
3,B7,50900

# Biological target: T3, human ROR1 (hROR1) on cells
# Experiment: flow cytometry (FACS) on HEK293T-hROR1 cells, antibody 0.01-100 nM, median fluorescence intensity
# Experimental: as §1
row,Binder,EC50 (read off the curve) [nM]
1,B1,~2
2,B8,~3
3,B9,~3

# Biological target: T3, human ROR1 (hROR1) on cells
# Experiment: FACS, HEK293T-hROR1 cells
# Remark: another data set of the same source
# Experimental: as §1
row,Binder,fold lower EC50 than reference PR000374 [fold]
1,B1,10
2,B2,10
3,B3,10
4,B4,10
5,B5,10
6,B6,10
7,B7,10
8,B8,10
9,B9,10

# Biological target: T4, hROR2ECD-his
# Experiment: ELISA, plate coated with hROR2 ECD-his
# Remark: another data set of the same source
# Experimental: as §2, §3
row,Binder,ELISA signal (called MFI)
1,B1,0.0265
2,B2,0.0305
3,B3,0.038
4,B4,0.024
5,B5,0.031
6,B6,0.0285
7,B7,0.0305
8,B8,0.027
9,B9,0.03

# Biological target: T5, Human ROR1-ECD-his (human, UniProt Q01973 30-406)
# T5 construct: extracellular domain; bought, Acrobiosystems RO1-H522y; also called hROR1-ECD-his; hROR1 ECD-his
# T5 sequence (Q01973 30-406): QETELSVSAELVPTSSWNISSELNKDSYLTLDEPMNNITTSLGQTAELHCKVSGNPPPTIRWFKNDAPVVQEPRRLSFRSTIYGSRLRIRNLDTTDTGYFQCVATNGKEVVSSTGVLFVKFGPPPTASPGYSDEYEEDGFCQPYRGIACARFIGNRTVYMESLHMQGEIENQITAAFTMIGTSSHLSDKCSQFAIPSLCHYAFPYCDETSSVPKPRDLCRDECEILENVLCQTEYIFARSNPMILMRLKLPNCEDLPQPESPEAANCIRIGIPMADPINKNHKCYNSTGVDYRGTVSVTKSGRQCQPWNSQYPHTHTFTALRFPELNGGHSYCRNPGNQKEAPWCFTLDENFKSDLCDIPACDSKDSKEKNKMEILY
# Experiment: ELISA, plate coated with hROR1 ECD-his
# Experimental: as §2, §3
row,Binder,ELISA signal (called MFI)
1,B1,2.45
2,B2,2.24
3,B3,2.39
4,B4,2.38
5,B5,2.48
6,B6,2.54
7,B7,2.38
8,B8,2.38
9,B9,2.61
